B1: SetA (natural protein)
chain: MYKIYSYLGWRIDMKTENLPQAGQEAQIDKKIHFIWVGHIMPQKNIQVVSEWAEKNPGYETIIWVDKKIAPAKELDLFILDMKSKGITVKDINEEGVCRDSIRHELDQESPNYGMVSDMLRLNILAAEGGIYLDSDILCSAPFPDEIYAPFGFLLSPWSQGANNTLCNDIILCSKGNQIIQQLADAIEQSYIARDSFEFTHEYASMKETKGERIAKTLGVTGPGFLFHQLKKMGILNDKSEMEAIHWELQDQRYLIDGSVKEPDYFYVPQNNTNDASWVPSIKRPGIENMSFQERLENAVQLIAFDIQKTGLFNLDHYANELKVKQNSWCIAAETSPELKPDSYLLIRPRDKTGEWTLYYVDEDKKLNPVTLPVIKGAIKLSEVSDPLRKFHTLLSQVSDPVNPTAHELKQIGRALIELKPRQDEWHCKNKWSGAEEIAQELWQRITSNETLRAQIKQCFTQFESLKPRVAELGLTRASGAGTEVEAHESTVKEQEIISQNTVGEEGTKEKNSVQLASENSSDEKIKTAHDLIDEIIQDVIQLDGKLGLLGGNTRQLEDGRVINIPNGAAMIFDDYKKYKQGELTAESALESMIKIAKLSNQLNRHTFFNQRQPETGQFYKKVAAIDLQTTIAAEYDNNHGLRI
B2: (His)10-MBP-DotL(656-783)–IcmSW–LvgA (complex)
chain 1: GQNEPEPVEDIVEEEVEGALTIFSKLRIDPNAPPILVADKEVFSEPLLPINETRNQMITIERLAGAKDKYAGTVANELIKDFQIATSYPPEERDVIDVQELTGIIRDLSAKISAEREKANKKAAEELT
chain 2: MERDISKCMAKIAASMNAKFYLNDRFVSFDEVFSETGLLPAIAKRADQLCSLCLGYGLGATYDESEGALLGIRVVFDEVTPNVLRLLCMTDVMNELIQGGPSRDYTPLDELMYD
chain 3: MPDLSHEASAKYWFEYLDPMIYRVITFMESVENWTLDGNPELEEAMKQLGQELDDIEKIDLGLLAEEDKFIRIVGNIKSGRGLRLLQAIDTVHPGSASRVLIHAEETSLSSSDPAGFFLKRNIVFERLRLLSRVFCQYRLKLVLRALEGDE
chain 4: MADGDIEIKAGFVDTDLDDRKLTMIDDLNNPLAIVERVYLIWWHWADFHLHVISPHIDTITPAIVIEPELIPGSNDHEFVYSIHDSGSKLSTSKSQDMFSAGMSMCKLFYTIEKMVYILVERLKSGGVSMEAEVQIAFAGHEIAQRKAFESIINLPYNVVVTNFDPGIWGEKYLQNVKRLADKGYGYPPESPRKIYMHPVSSGTTARK

Columns and labels:
Assay in all cases: BLI
[1] = biological target: B2
PieA = PieA (Legionella pneumophila)
SidH(1830-2200) = SidH(1830-2200) (Legionella pneumophila, UniProt Q5ZRQ1 1830-2200)

| Binder | Kd [1] [nM] | Kd (PieA) [nM] | Kd (SidH(1830-2200)) [nM] |
| --- | --- | --- | --- |
| B1 | 920 |  |  |
| B2 |  | 230 | 570 |

Reference: article PMC7251119 (2020)
